“And” between values parts separate entries of the source, which are not always exact repeats. Equal values may be shown once. Positions of bridges follow the written chain, without caps; N, C: chain ends. Non-standard residues stand in square brackets, D forms with d. βAla = NCCC(=O)O
Molecular target: Keap1-Maltose Binding Protein (MBP tag), Q14145
Assay: TR-FRET competition vs ETGE-biotin; grade band per paragraph 615

Sequence of Keap1-Maltose Binding Protein (MBP tag), Q14145 (Q14145 321-609 limits assumed): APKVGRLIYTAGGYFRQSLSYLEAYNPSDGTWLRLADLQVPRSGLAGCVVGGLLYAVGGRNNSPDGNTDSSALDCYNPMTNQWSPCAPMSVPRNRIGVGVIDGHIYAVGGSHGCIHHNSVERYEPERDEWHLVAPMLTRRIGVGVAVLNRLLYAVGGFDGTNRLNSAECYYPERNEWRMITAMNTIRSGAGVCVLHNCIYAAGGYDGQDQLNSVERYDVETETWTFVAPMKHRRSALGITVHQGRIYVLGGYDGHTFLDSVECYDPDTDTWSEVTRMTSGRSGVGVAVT

B1: {[Stearyl-βAla-Leu-Gln-Cys(&1)-Asp-Pro-Glu-Thr-Gly-Glu-Cys(&2)-Leu-Pro-βAla-Arg-Lys-Lys-Arg-Arg-Gln- (peptide)
peptide: Stearyl-[βAla]LQCDPETGECLP[βAla]RKKRRQRRR-NH2
modifications: bridge 4-11; not fully specified (bridges); also: Cys4 and Cys11 cyclised, linker not given here
IC50: < 100 nM and > 1 nM

From patent publication US20200255478A1, “NOVEL COMPOUNDS ACTIVATING THE NRF2 PATHWAY” (Almirall, S.A., priority 2017, published 2020)
